Experimental data reported in patent US20130347134A1, “TRANSGENIC VON WILLEBRAND FACTOR ANIMALS AND USES THEREOF” (priority 2012, published 2013).

Columns and labels:
[1] = molecular target: human platelet glycoprotein Ib alpha (GPIb α) on human platelets (human) (UniProt P07359); assay: cell-based or functional assay
[2] = molecular target: human platelet glycoprotein Ib alpha (GPIb α) on human platelets (human) (UniProt P07359); assay: blocking in a parallel-plate flow chamber: human whole blood treated with mAb AP-1 perfused over surface-immobilized murine plasma VWF R1326H (the blocked ligand), shear rate 1,600 s^-1; about 4,600 without antibody
[3] = molecular target: human platelet glycoprotein Ib alpha (GPIb α) on human platelets (human) (UniProt P07359); assay: blocking in a parallel-plate flow chamber: human whole blood treated with mAb 6D1 perfused over surface-immobilized murine plasma VWF R1326H (the blocked ligand), shear rate 1,600 s^-1; about 4,600 without antibody
[4] = molecular target: human platelet integrin αIIb β3 on human platelets (human) (UniProt P08514); assay: cell-based or functional assay
[5] = molecular target: murine platelet glycoprotein Ib alpha (GPIb α) on mouse platelets (mouse) (UniProt O35930); assay: cell-based or functional assay
[6] = molecular target: human platelet glycoprotein Ib alpha (GPIb α) on human platelets (human) (UniProt P07359); assay: translocation of human platelets on immobilized plasma VWF in flow
[7] = molecular target: human platelet glycoprotein Ib alpha (GPIb α) on human platelets (human) (UniProt P07359); assay: human whole blood over immobilized protein, parallel-plate flow chamber, 1600 s^-1

murine platelet glycoprotein Ib alpha (GPIb α) on mouse platelets (mouse), sequence (O35930 17-734): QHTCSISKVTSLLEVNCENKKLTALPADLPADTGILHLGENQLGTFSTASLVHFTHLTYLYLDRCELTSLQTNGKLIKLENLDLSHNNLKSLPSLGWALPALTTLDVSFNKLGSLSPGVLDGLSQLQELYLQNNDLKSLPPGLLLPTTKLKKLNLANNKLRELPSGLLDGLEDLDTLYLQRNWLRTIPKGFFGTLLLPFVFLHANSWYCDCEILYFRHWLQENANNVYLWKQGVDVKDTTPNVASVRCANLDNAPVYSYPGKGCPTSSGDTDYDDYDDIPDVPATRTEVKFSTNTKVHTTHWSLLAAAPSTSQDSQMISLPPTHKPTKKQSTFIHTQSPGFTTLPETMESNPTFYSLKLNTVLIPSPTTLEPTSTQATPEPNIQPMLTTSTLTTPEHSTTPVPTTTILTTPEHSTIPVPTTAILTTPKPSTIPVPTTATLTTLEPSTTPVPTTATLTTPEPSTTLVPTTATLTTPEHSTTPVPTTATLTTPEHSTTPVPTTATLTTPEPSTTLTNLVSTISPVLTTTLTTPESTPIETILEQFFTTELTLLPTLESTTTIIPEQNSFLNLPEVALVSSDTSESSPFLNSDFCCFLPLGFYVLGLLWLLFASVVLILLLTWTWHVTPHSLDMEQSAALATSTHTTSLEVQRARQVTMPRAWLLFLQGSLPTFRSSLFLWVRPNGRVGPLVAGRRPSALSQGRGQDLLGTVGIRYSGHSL

**Q.** With GPIb α function-blocking antibody AP-1 as the substance, how does the human platelet thrombus size in VWF^1326R>H mice after pre-treatment with the mAb [1] read?
**A.** The human platelet thrombus size in VWF^1326R>H mice after pre-treatment with the mAb was 198 µm^2.

**Q.** What about the Human platelet accumulation/mm2 [2] of the same substance?
**A.** Its Human platelet accumulation/mm2 is 0 /mm2.

**Q.** “function-blocking monoclonal antibody 6D1 (anti-human GPIb α)” was tested. Which human platelet thrombus size in VWF^1326R>H mice after pre-treatment with the mAb [1] did it give?
**A.** The human platelet thrombus size in VWF^1326R>H mice after pre-treatment with the mAb was 265 µm^2.

**Q.** And the Human platelet accumulation/mm2 [3]?
**A.** The Human platelet accumulation/mm2 was 0 /mm2.

**Q.** For “function-blocking monoclonal antibody 7E3 (anti-human αIIb β3)”, which human platelet thrombus size in VWF^1326R>H mice after pre-treatment with the mAb [4] is on record?
**A.** Its human platelet thrombus size in VWF^1326R>H mice after pre-treatment with the mAb is 529 µm^2.

**Q.** With “murine plasma VWF containing the 1326R>H mutation (VWF^1326R>H), Q8CIZ8 764-2813” as the substance, how does the average thrombus size, human platelets in homozygous VWF^1326R>H mice [1] read?
**A.** Its average thrombus size, human platelets in homozygous VWF^1326R>H mice is 8950 µm^2.

**Q.** What about the share of human cells in thrombi, laser injury in homozygous VWF^1326R>H mice [1] of the same substance?
**A.** Its share of human cells in thrombi, laser injury in homozygous VWF^1326R>H mice is 91.7%.

**Q.** And the tail bleeding time of VWF^1326R>H mice infused with human platelets [1]?
**A.** Its tail bleeding time of VWF^1326R>H mice infused with human platelets is 182 s.

**Q.** What about the increase in tail bleeding time, heterozygous animals versus WT [5] of the same substance?
**A.** The increase in tail bleeding time, heterozygous animals versus WT was 1.9 fold.

**Q.** What about the reduction in thrombi formed on collagen, whole blood of knock-in mice, 1600 s^-1 [5] of the same substance?
**A.** Its reduction in thrombi formed on collagen, whole blood of knock-in mice, 1600 s^-1 is 70%.

**Q.** And the reduction in thrombus formation on surface-immobilized collagen, whole blood of homozygous mutant mice (FIG. 26) [5]?
**A.** Its reduction in thrombus formation on surface-immobilized collagen, whole blood of homozygous mutant mice (FIG. 26) is 80%.

**Q.** What about the translocation velocity of human platelets [6] of the same substance?
**A.** Its translocation velocity of human platelets is 3.5 µm/sec.

**Q.** Which results are given for “murine plasma von Willebrand factor (VWF), wild type, Q8CIZ8 764-2813”?
**A.** platelet deposition relative to same-species control [7]: 10%; share of human platelets in total thrombus area, WT mice [1]: 5.7%; ristocetin-induced platelet aggregation (RIPA), murine PRP, 2.5 mg/ml ristocetin [5]: 30%
